Measured values: PMC12102759 (2025)

B1: PIP5K1C peptide 642-657 (Phosphatidylinositol 4-phosphate 5-kinase type-1 gamma), 16-mer library wild type / TLN1 PTB (TLN1 Phosphotyrosine-binding (PTB) domain, residues 309-401) (parent complex)
chain 1: TDERSWVYSPLHYSAQ
chain 2: GVSFFLVKEKMKGKNKLVPRLLGITKECVMRVDEKTKEVIQEWNLTNIKRWAASPKSFTLDFGDYQDGYYSVQTTEGEQIAQLIAGYIDIILK

Variants of: B1
Experiment: proteomic peptide phage display deep mutational scan (ProP-PD DMS): M13 P8 16-mer library selected against immobilised GST-tagged bait for four days (rounds), NGS of the eluted pools per day and pseudo-replica; bait immobilised on MaxiSorp plates (10 µg), library pre-cleared on GST, 2 h binding at 4 °C, five washes; one round per day, days 1-4; value from days 2 and 3
In the case of chain 1 P10N, the screen value is reported as 0.00396 average fractional NGS count over selection days 2 and 3 (reads of this peptide / all reads for the bait, averaged over …. With chain 1 P10V the screen value was 0.000485 average fractional NGS count over selection days 2 and 3 (reads of this peptide / all reads for the bait, averaged over …. In the case of chain 1 P10I, the screen value is reported as 0.00026 average fractional NGS count over selection days 2 and 3 (reads of this peptide / all reads for the bait, averaged over …. In the case of chain 1 P10R, the screen value is reported as 0.000767 average fractional NGS count over selection days 2 and 3 (reads of this peptide / all reads for the bait, averaged over …. In the case of chain 1 P10F, the screen value is reported as 0.0019 average fractional NGS count over selection days 2 and 3 (reads of this peptide / all reads for the bait, averaged over …. With chain 1 P10A the screen value was 0.00236 average fractional NGS count over selection days 2 and 3 (reads of this peptide / all reads for the bait, averaged over …. In the case of chain 1 P10D, the screen value is reported as 0.00117 average fractional NGS count over selection days 2 and 3 (reads of this peptide / all reads for the bait, averaged over …. chain 1 P10G was tested, and the screen value was 0.00227 average fractional NGS count over selection days 2 and 3 (reads of this peptide / all reads for the bait, averaged over …. chain 1 P10Y was tested, and the screen value was 0.000349 average fractional NGS count over selection days 2 and 3 (reads of this peptide / all reads for the bait, averaged over …. With chain 1 T1Y the screen value was 0.000499 average fractional NGS count over selection days 2 and 3 (reads of this peptide / all reads for the bait, averaged over …. For chain 1 T1E, the screen value was 0.00477 average fractional NGS count over selection days 2 and 3 (reads of this peptide / all reads for the bait, averaged over …. For chain 1 T1Q, the screen value was 0.00112 average fractional NGS count over selection days 2 and 3 (reads of this peptide / all reads for the bait, averaged over …. chain 1 T1G was tested, and the screen value was 0.00259 average fractional NGS count over selection days 2 and 3 (reads of this peptide / all reads for the bait, averaged over …. For chain 1 T1V, the screen value was 0.00105 average fractional NGS count over selection days 2 and 3 (reads of this peptide / all reads for the bait, averaged over …. chain 1 T1S was tested, and the screen value was 0.00255 average fractional NGS count over selection days 2 and 3 (reads of this peptide / all reads for the bait, averaged over …. In the case of chain 1 T1K, the screen value is reported as 0.001 average fractional NGS count over selection days 2 and 3 (reads of this peptide / all reads for the bait, averaged over …. In the case of chain 1 T1R, the screen value is reported as 0.00306 average fractional NGS count over selection days 2 and 3 (reads of this peptide / all reads for the bait, averaged over …. With chain 1 T1N the screen value was 0.00021 average fractional NGS count over selection days 2 and 3 (reads of this peptide / all reads for the bait, averaged over …. chain 1 T1L was tested, and the screen value was 0.000574 average fractional NGS count over selection days 2 and 3 (reads of this peptide / all reads for the bait, averaged over …. For chain 1 T1H, the screen value was 0.000767 average fractional NGS count over selection days 2 and 3 (reads of this peptide / all reads for the bait, averaged over …. With chain 1 W6R the screen value was 0.000143 average fractional NGS count over selection days 2 and 3 (reads of this peptide / all reads for the bait, averaged over …. For chain 1 W6P, the screen value was 0.000161 average fractional NGS count over selection days 2 and 3 (reads of this peptide / all reads for the bait, averaged over …. chain 1 V7T was tested, and the screen value was 0.0104 average fractional NGS count over selection days 2 and 3 (reads of this peptide / all reads for the bait, averaged over …. With chain 1 V7M the screen value was 0.0016 average fractional NGS count over selection days 2 and 3 (reads of this peptide / all reads for the bait, averaged over …. chain 1 V7S was tested, and the screen value was 0.00114 average fractional NGS count over selection days 2 and 3 (reads of this peptide / all reads for the bait, averaged over …. chain 1 V7K was tested, and the screen value was 0.00287 average fractional NGS count over selection days 2 and 3 (reads of this peptide / all reads for the bait, averaged over …. For chain 1 V7Q, the screen value was 0.00122 average fractional NGS count over selection days 2 and 3 (reads of this peptide / all reads for the bait, averaged over …. For chain 1 V7N, the screen value was 0.0129 average fractional NGS count over selection days 2 and 3 (reads of this peptide / all reads for the bait, averaged over …. With chain 1 V7D the screen value was 0.000439 average fractional NGS count over selection days 2 and 3 (reads of this peptide / all reads for the bait, averaged over …. chain 1 V7L was tested, and the screen value was 0.0042 average fractional NGS count over selection days 2 and 3 (reads of this peptide / all reads for the bait, averaged over …. In the case of chain 1 V7R, the screen value is reported as 0.00391 average fractional NGS count over selection days 2 and 3 (reads of this peptide / all reads for the bait, averaged over …. In the case of chain 1 V7I, the screen value is reported as 0.000515 average fractional NGS count over selection days 2 and 3 (reads of this peptide / all reads for the bait, averaged over …. chain 1 V7Y was tested, and the screen value was 0.00645 average fractional NGS count over selection days 2 and 3 (reads of this peptide / all reads for the bait, averaged over …. For chain 1 E3L, the screen value was 0.00278 average fractional NGS count over selection days 2 and 3 (reads of this peptide / all reads for the bait, averaged over …. In the case of chain 1 E3R, the screen value is reported as 0.000973 average fractional NGS count over selection days 2 and 3 (reads of this peptide / all reads for the bait, averaged over …. chain 1 E3M was tested, and the screen value was 0.0019 average fractional NGS count over selection days 2 and 3 (reads of this peptide / all reads for the bait, averaged over …. For chain 1 E3F, the screen value was 0.00327 average fractional NGS count over selection days 2 and 3 (reads of this peptide / all reads for the bait, averaged over …. With chain 1 E3D the screen value was 0.000475 average fractional NGS count over selection days 2 and 3 (reads of this peptide / all reads for the bait, averaged over …. chain 1 E3I was tested, and the screen value was 0.00159 average fractional NGS count over selection days 2 and 3 (reads of this peptide / all reads for the bait, averaged over …. For chain 1 E3N, the screen value was 0.00147 average fractional NGS count over selection days 2 and 3 (reads of this peptide / all reads for the bait, averaged over …. In the case of chain 1 E3Q, the screen value is reported as 0.000394 average fractional NGS count over selection days 2 and 3 (reads of this peptide / all reads for the bait, averaged over …. With chain 1 E3T the screen value was 0.00106 average fractional NGS count over selection days 2 and 3 (reads of this peptide / all reads for the bait, averaged over …. chain 1 E3A was tested, and the screen value was 0.000271 average fractional NGS count over selection days 2 and 3 (reads of this peptide / all reads for the bait, averaged over …. In the case of chain 1 E3K, the screen value is reported as 0.00138 average fractional NGS count over selection days 2 and 3 (reads of this peptide / all reads for the bait, averaged over …. With chain 1 E3Y the screen value was 0.00103 average fractional NGS count over selection days 2 and 3 (reads of this peptide / all reads for the bait, averaged over …. With chain 1 E3P the screen value was 0.000178 average fractional NGS count over selection days 2 and 3 (reads of this peptide / all reads for the bait, averaged over …. With chain 1 E3G the screen value was 0.00191 average fractional NGS count over selection days 2 and 3 (reads of this peptide / all reads for the bait, averaged over …. With chain 1 E3S the screen value was 0.00226 average fractional NGS count over selection days 2 and 3 (reads of this peptide / all reads for the bait, averaged over …. chain 1 S14L was tested, and the screen value was 0.00127 average fractional NGS count over selection days 2 and 3 (reads of this peptide / all reads for the bait, averaged over …. For chain 1 S14V, the screen value was 0.0171 average fractional NGS count over selection days 2 and 3 (reads of this peptide / all reads for the bait, averaged over …. chain 1 S14I was tested, and the screen value was 0.000211 average fractional NGS count over selection days 2 and 3 (reads of this peptide / all reads for the bait, averaged over …. chain 1 S14Y was tested, and the screen value was 0.00168 average fractional NGS count over selection days 2 and 3 (reads of this peptide / all reads for the bait, averaged over …. For chain 1 S14Q, the screen value was 0.00119 average fractional NGS count over selection days 2 and 3 (reads of this peptide / all reads for the bait, averaged over …. For chain 1 S14R, the screen value was 0.000219 average fractional NGS count over selection days 2 and 3 (reads of this peptide / all reads for the bait, averaged over …. For chain 1 S14D, the screen value was 0.00662 average fractional NGS count over selection days 2 and 3 (reads of this peptide / all reads for the bait, averaged over …. For chain 1 S14A, the screen value was 0.00151 average fractional NGS count over selection days 2 and 3 (reads of this peptide / all reads for the bait, averaged over …. chain 1 S14K was tested, and the screen value was 0.000852 average fractional NGS count over selection days 2 and 3 (reads of this peptide / all reads for the bait, averaged over …. With chain 1 S14P the screen value was 0.000401 average fractional NGS count over selection days 2 and 3 (reads of this peptide / all reads for the bait, averaged over …. For chain 1 L11G, the screen value was 0.000282 average fractional NGS count over selection days 2 and 3 (reads of this peptide / all reads for the bait, averaged over …. In the case of chain 1 L11T, the screen value is reported as 0.00178 average fractional NGS count over selection days 2 and 3 (reads of this peptide / all reads for the bait, averaged over …. In the case of chain 1 L11H, the screen value is reported as 0.000309 average fractional NGS count over selection days 2 and 3 (reads of this peptide / all reads for the bait, averaged over …. With chain 1 L11V the screen value was 0.00105 average fractional NGS count over selection days 2 and 3 (reads of this peptide / all reads for the bait, averaged over …. In the case of chain 1 L11W, the screen value is reported as 0.000722 average fractional NGS count over selection days 2 and 3 (reads of this peptide / all reads for the bait, averaged over …. With chain 1 L11A the screen value was 0.000511 average fractional NGS count over selection days 2 and 3 (reads of this peptide / all reads for the bait, averaged over …. chain 1 L11M was tested, and the screen value was 0.000374 average fractional NGS count over selection days 2 and 3 (reads of this peptide / all reads for the bait, averaged over …. chain 1 L11F was tested, and the screen value was 0.000354 average fractional NGS count over selection days 2 and 3 (reads of this peptide / all reads for the bait, averaged over …. In the case of chain 1 A15T, the screen value is reported as 0.00116 average fractional NGS count over selection days 2 and 3 (reads of this peptide / all reads for the bait, averaged over …. With chain 1 A15D the screen value was 0.00285 average fractional NGS count over selection days 2 and 3 (reads of this peptide / all reads for the bait, averaged over …. In the case of chain 1 A15W, the screen value is reported as 0.00297 average fractional NGS count over selection days 2 and 3 (reads of this peptide / all reads for the bait, averaged over …. For chain 1 A15M, the screen value was 0.00017 average fractional NGS count over selection days 2 and 3 (reads of this peptide / all reads for the bait, averaged over …. In the case of chain 1 A15L, the screen value is reported as 0.00142 average fractional NGS count over selection days 2 and 3 (reads of this peptide / all reads for the bait, averaged over …. For chain 1 A15R, the screen value was 0.000696 average fractional NGS count over selection days 2 and 3 (reads of this peptide / all reads for the bait, averaged over …. chain 1 A15P was tested, and the screen value was 0.00282 average fractional NGS count over selection days 2 and 3 (reads of this peptide / all reads for the bait, averaged over …. For chain 1 A15H, the screen value was 0.000752 average fractional NGS count over selection days 2 and 3 (reads of this peptide / all reads for the bait, averaged over …. chain 1 A15G was tested, and the screen value was 0.000489 average fractional NGS count over selection days 2 and 3 (reads of this peptide / all reads for the bait, averaged over ….
